Results taken from IntAct's records for PubMed 22949657.

Target: T1, tp8l2_human TNFAIP8L2 (UniProt Q6P589)
T1 sequence: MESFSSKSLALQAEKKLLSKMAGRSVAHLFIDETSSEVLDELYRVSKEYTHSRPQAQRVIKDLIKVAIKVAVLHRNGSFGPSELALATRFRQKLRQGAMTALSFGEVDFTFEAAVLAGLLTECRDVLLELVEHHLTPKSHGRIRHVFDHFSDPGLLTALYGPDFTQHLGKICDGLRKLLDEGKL

Substance: Ras-related C3 botulinum toxin substrate 1 (Homo sapiens) (from UniProt P63000-1) C189S
- effect of a mutation on the interaction: disrupting interaction strength
